Numbering of substitutions follows the chain as printed.
Columns and labels:
[1] = target: T1, GST-Gaf1 (Schizosaccharomyces pombe (972?)) (UniProt Q10280); assay: competition; conditions: 10 mM Tris pH 7.5, 2 mM MgCl2, 50 mM NaCl, 1 mM DTT, 5% glycerol, 2 ug poly(dI-dC) in 20 ul, room temperature, 20 min; 6% native PAGE
T1 sequence: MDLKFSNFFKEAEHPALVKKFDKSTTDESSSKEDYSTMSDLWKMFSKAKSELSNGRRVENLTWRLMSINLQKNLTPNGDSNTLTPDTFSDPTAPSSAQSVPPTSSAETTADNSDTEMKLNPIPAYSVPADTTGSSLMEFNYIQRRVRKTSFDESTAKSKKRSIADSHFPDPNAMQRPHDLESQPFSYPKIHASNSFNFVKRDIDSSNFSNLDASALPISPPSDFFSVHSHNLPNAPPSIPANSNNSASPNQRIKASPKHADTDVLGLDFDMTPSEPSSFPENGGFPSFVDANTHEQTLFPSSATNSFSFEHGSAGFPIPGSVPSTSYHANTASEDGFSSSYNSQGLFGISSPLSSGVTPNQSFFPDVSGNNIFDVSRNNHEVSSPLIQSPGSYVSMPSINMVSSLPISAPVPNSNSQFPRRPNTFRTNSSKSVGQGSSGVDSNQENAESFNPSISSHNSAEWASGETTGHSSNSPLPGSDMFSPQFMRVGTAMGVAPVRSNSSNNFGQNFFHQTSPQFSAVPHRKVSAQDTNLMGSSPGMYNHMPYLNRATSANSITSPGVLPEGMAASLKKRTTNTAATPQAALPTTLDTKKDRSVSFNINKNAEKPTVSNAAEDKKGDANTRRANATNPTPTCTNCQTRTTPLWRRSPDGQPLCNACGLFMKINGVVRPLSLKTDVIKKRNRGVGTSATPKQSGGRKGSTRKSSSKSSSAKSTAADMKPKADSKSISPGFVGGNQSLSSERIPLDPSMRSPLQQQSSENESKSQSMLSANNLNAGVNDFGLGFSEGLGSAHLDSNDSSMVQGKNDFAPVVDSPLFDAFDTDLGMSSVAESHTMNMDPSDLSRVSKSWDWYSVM

GST-Gaf1 [2] = target: T2, GST-Gaf1 (Schizosaccharomyces pombe, UniProt Q10280 1-855); assay: competition; cold PW, 100-fold, against labeled PA; 10 mM Tris pH 7.5, 2 mM MgCl2, 50 mM NaCl, 1 mM DTT, 5% glycerol, 2 ug poly(dI-dC) in 20 ul, room temperature, 20 min; 6% native PAGE; conditions: protein: recombinant; tags: N-terminal GST (pGEX4T3); label: 32P 5'-end (probe); blunt
T2 sequence: T1 sequence

GST-Gaf1 [3] = target: T2, GST-Gaf1; assay: competition; cold PM, 100-fold, against labeled PA; 10 mM Tris pH 7.5, 2 mM MgCl2, 50 mM NaCl, 1 mM DTT, 5% glycerol, 2 ug poly(dI-dC) in 20 ul, room temperature, 20 min; 6% native PAGE; conditions: protein: recombinant; tags: N-terminal GST (pGEX4T3); label: 32P 5'-end (probe)

Molecule: GGATATCCTTTTAATATATGCTAAATGAATAGATTCTCACTATGTAAGTCACCAGGTATGTATGTATATATATATATATATACATACGCATTGGCAACCAACTAGTAAGAGTATAGAGCGAGGCGTAATACGCGATGTTACTGACAATGAAAATCAAACAAAGAAATTCAACTTTTTTAAGTCTAGCCAAAATGTGTATGAGGGGAAGGGACAAAATTCACAGGGGTTAAAGTAACATATG (double strand) [PB]
- binding [1]: no binding

B1: PW (dsDNA)
DNA 1: CATTTTGCCTTGCGCTATCTCCCTCAACGAAAAG
DNA 2: CTTTTCGTTGAGGGAGATAGCGCAAGGCAAAATG
- binding result (GST-Gaf1 [2]): binds

B2: PM (dsDNA)
DNA 1: B1 DNA 1 with T16A, A17T, C19G
DNA 2: B1 DNA 2 with G16C, T18A, A19T
- binding result (GST-Gaf1 [3]): no binding
